T1: mCXCL3 displayed on the surface of yeast as N-terminal fusion of Aga2p (mouse, UniProt Q6W5C0 32-100)
T1 chain: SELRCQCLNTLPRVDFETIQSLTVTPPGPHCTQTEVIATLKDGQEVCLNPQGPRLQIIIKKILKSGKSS

T2: mCXCL5 displayed on the surface of yeast as N-terminal fusion of Aga2p (mouse)
T2 chain: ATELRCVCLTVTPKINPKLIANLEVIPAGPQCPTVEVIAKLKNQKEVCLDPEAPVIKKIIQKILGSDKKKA

B1: mCXCL2 displayed on the surface of yeast as N-terminal fusion of Aga2p (ligand)
chain: AVVASELRCQCLKTLPRVDFKNIQSLSVTPPGPHCAQTEVIATLKGGQKVCLDPEAPLVQKIIQKILNKGKAN
B2: mCXCL1 displayed on the surface of yeast as N-terminal fusion of Aga2p (ligand)
chain: APIANELRCQCLQTMAGIHLKNIQSLKVLPSGPHCTQTEVIATLKNGREACLDPEAPLVQKIVQKMLKGVPK

Legend:
Assay in all cases: FACS
[1] = molecular target: B2
[2] = molecular target: T1, mCXCL3 displayed on the surface of …
[3] = molecular target: T2, mCXCL5 displayed on the surface of …
[4] = molecular target: B1
[5] = molecular target: hCXCL8
[6] = molecular target: hCXCL5
[7] = molecular target: hCXCL3
[8] = molecular target: hCXCL2
[9] = molecular target: hCXCL6
[10] = molecular target: SA157*, separate mouse serum albumin fusions of the VL and VH domains of CK157 mixed in equimolar amounts
[11] = molecular target: wild-type hCXCL1 displayed on the surface of yeast as N-terminal fusion of Aga2p (human, UniProt P09341 35-107)
wild-type hCXCL1 displayed on the surface of yeast as N-terminal fusion of Aga2p, sequence (P09341 35-107): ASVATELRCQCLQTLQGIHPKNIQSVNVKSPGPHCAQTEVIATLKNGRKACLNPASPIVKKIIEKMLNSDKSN

Row | Kd [1] [nM] | Kd [7] [nM] | Kd [8] [nM] | Kd [10] [nM] | Binder | other results
1 | 29.4 | 836 | 1590 |  | SA138, mouse serum albumin fused to the CK138 single-chain variable antibody fragment (scFv, V domains shown) VH: EVQLVESDGGLVQPGGSLRLSCAASGFNLSYYGMHWVRQAPGKGLEWVAYIASYPGYTSYADSVKGRFTISADTSKNTAYLQMNSLRAEDTAVYYCARSGYSYSPYYSWFSAGMNYWGQGALVTVSS VL: AIQMTRSPSSLSASVGDRVTITCRASQYHDGSAAWYQQKPGKAPKLLIYGASYLYSGVPSRFSGSRSGTDFTLTISSLQPEDFATYYCQQSSYSLITFGQGTKVEIK | Kd [2]: 31.1 nM; Kd [3]: 357 nM; Kd [4]: 16.7 nM; Kd [5]: 14.7 nM; Kd [6]: 33.7 nM; Kd [9]: 5000 nM
2 |  |  |  | 591 | B1 | 
3 |  |  |  | 666 | B2 | 
4 | 2.9 | 9.2 | 43.6 |  | SA129, mouse serum albumin fused to the CK129 single-chain variable antibody fragment (scFv, V domains shown) VH: EVQLVESGGGLVQPGGSLRLSCAASGFNISSYGSMHWVRQAPGKGLEWVASIYPYSSSTYYADSVKGRFTISADTSKNTAYLQMNSLRAEDTAVYYCARGYGPWYAYSYFALDYWGQGTLVTVSS VL: DIQMTQSPSPLSASVGDRVTITCRASQYGGYVAWYQQKPGKAPKLLIYGASLLYSGVPSRFSGGRSGTDFTLTISSLQPEDFATYYCQRGHALITFGQGTKVEIE | Kd [11]: 2.7 nM

— article PMC5899157 (2018)
